The experiment concerns the target IEk on the surface of CH27 murine B-cell lymphoma cells (mouse (endogenous in CH27)). Briefly: flow cytometry on cells; CH27 cells incubated with 1 mM biotinylated peptide for 20 h at 37 °C, washed, stained with streptavidin-Cy5; occupancy of IEk calculated against cells stained with 14-4-4s-bio and streptavidin-Cy5.

“biotinylated ER60 peptide (from UniProt P27773 448-461)”: the percent of IEk molecules occupied is 17%.

The values are drawn from publication PMC2253636.
